Test results published in the supplement of paper PMC10567573.
± gives the standard deviation.

Assay: protein stability index of a GFP-peptide fusion (GPS, HEK-293T) (PSI 1-6); higher = more stable
[1] = treatment: DMSO, c terminus: a fixed tail appended
[2] = treatment: MLN4924 1 uM, 8 h, c terminus: a fixed tail appended
[3] = treatment: DMSO, c terminus: native
[4] = treatment: MLN4924 1 uM, 8 h, c terminus: native
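Further: 24-mer peptide tiles fused after GFP, lentivirally expressed, FACS-sorted into six equal bins by GFP/DsRed ratio, decoded by Illumina sequencing, PSI is the read-weighted mean bin number.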

| Sequence | protein stability index [1] | protein stability index [2] | protein stability index [3] | protein stability index [4] |
| --- | --- | --- | --- | --- |
| EQCIKLWLHALHLRQKGNRNTHKD [FEM1B] | 2.39 ± 0.21 | 2.59 ± 0.39 |  |  |
| SRLMRRHKRRRRKQKVSRIERSSS [DVL3] | 4.46 ± 0.27 | 4.43 ± 0.09 |  |  |
| SKLKGAAVKLADFGLAIEVEGEQQ [CAMK2A] | 4.06 ± 0.11 | 4.4 ± 0.31 |  |  |
| HVLALGLGIYIGKRLSTPSASTY [BNIP3L] |  |  | 3.43 ± 0.86 | 3.2 ± 0.64 |
| KRKRVKQRINTYVFVGNQLIPQPL [PCMTD1] | 2.38 ± 0.17 | 2.73 ± 0.35 |  |  |
| LFAELGYFTDTDELQLEAANETYE [ATF6] | 4.04 ± 0.1 | 4.15 ± 0.24 |  |  |
| FVEDQAVVETVFFLTSRTRALLRR [ZSWIM9] | 2.21 ± 0.25 | 2.22 ± 0.14 |  |  |
| IRRPRLYLLQWLKSDKALMMLFND [PLK2] | 2.58 ± 0.48 | 2.75 ± 0.26 |  |  |
| EKIHEMVKKNSAKSMGLKKKAFVW [ACSBG2] | 2.49 ± 0.2 | 2.45 ± 0.3 |  |  |
| VLRGRLYAIAGYDGNSLLSSIECY [KLHL12] | 1.91 ± 0.14 | 2.28 ± 0.13 |  |  |
| PLWPGKSDVDQLYLIIRTLGKLIP [CDKL4] | 3.04 ± 0.39 | 2.34 ± 0.61 |  |  |
| RAEGTDIPTVKPLKPRPEPPKKPS [ZC2HC1A] | 5.38 ± 0.18 | 5.4 ± 0.27 |  |  |
| TSHSLPESSVPSTVGCSSQHTPDQ [PLEKHN1] | 5.36 ± 0.17 | 5.28 ± 0.16 |  |  |
| LESSDLPVALLLAQHKDRSTQLEM [MNAT1] | 3.47 ± 0.23 | 3.53 ± 0.3 |  |  |
| GVSFQAISSMADFWDFAQGPLLDS [PKD2L1] | 2.4 ± 0.29 | 2.87 ± 0.32 |  |  |
| GSCSTVGGVGYGDSKDCILEPLSL [ZNF277] | 3.59 ± 0.32 | 3.5 ± 0.24 |  |  |
| VRKPAEAERYKLERLAEAEKSQLI [FLOT1] | 4.46 ± 0.26 | 4.49 ± 0.14 |  |  |
| LLAKMFGAKDSELASQNKPLWQCY [PDS5B] | 2.57 ± 0.66 | 2.3 ± 0.31 |  |  |
| EKEKKNRKGKDKENGSVSSSETPP [EIF5] | 5.58 ± 0.24 | 5.65 ± 0.13 |  |  |
| HEVREFKQLIYRVRRTDDTPVVLV [RIT1] | 2.2 ± 0.29 | 2.24 ± 0.16 |  |  |
| ILGKVILWILHLLLECYIQYHHSK [TMEM192] | 2.99 ± 0.51 | 2.9 ± 0.31 |  |  |
| NESHSIKAILKNISVLAFSVCFIF [SLC29A1] | 2.79 ± 0.61 | 2.54 ± 0.4 |  |  |
| LLSKKGALQSRAAQRHRGSAKDGG [PLEKHN1] | 4.31 ± 0.12 | 4.39 ± 0.28 |  |  |

| Sequence | protein stability index [1] | protein stability index [2] | protein stability index [3] | protein stability index [4] |
| --- | --- | --- | --- | --- |
| SSLFMDTEKSGKREFDVRQTPQVN [WEE1] | 4.58 ± 0.26 | 4.71 ± 0.27 |  |  |
| KKAAESLRRSVEKYNSARADFEQK [FCHO1] | 4.2 ± 0.18 | 4.43 ± 0.29 |  |  |
| VFGVPLTVNVQRTGQPLPQSIQQA [DLC1] | 2.79 ± 0.2 | 3 ± 0.43 |  |  |
| DDIVSGRLPCSFVTLALLGSYTVQ [EPB41L3] | 2.72 ± 0.44 | 2.53 ± 0.53 |  |  |
| LISQCGKPVVNVSYRPAYDQGGPV [DUSP5] | 2.61 ± 0.38 | 2.6 ± 0.42 |  |  |
| HPRGWNDHVHILDTETFTWSQPIT [KLHDC2] | 2.42 ± 0.29 | 2.71 ± 0.54 |  |  |
| APGADVKVHRARKTMPKSVVGLHA [EHMT1] | 3.7 ± 0.18 | 3.91 ± 0.41 |  |  |
| GGGGVAAVVVLDQGSRHWQKLREE [DUSP5] | 2.96 ± 0.26 | 2.65 ± 0.3 |  |  |
| QDDSKPTQRQFTILNFNDLMSSAV [AASDHPPT] | 2.86 ± 0.31 | 2.97 ± 0.28 |  |  |
| KSPEMPVILEVSLEGSHDTANCEA [RTP4] | 4.85 ± 0.11 | 5.07 ± 0.34 |  |  |
| RLAELLLLETDAGPAASEGAEQPP [GADD45A] | 3.26 ± 0.22 | 3.6 ± 0.56 |  |  |
| YSKESIIFGASSVDFSLSGRLLFA [GNB5] | 2.84 ± 0.74 | 2.78 ± 0.68 |  |  |
| GDDFELLDQSELSQLDPASSRSH [RETREG3] |  |  | 4.75 ± 0.29 | 4.85 ± 0.4 |
| NRILAERIAKEIQVIPLQRDDED [IMPA1] |  |  | 3.47 ± 0.1 | 3.65 ± 0.12 |
| RDHVETELLKEAELIRNIQELLKR [TEKT4] | 2.74 ± 0.16 | 3.01 ± 0.36 |  |  |
| IGELLAPAAPFDKKCGRENWTVAF [WSB1] | 2.23 ± 0.12 | 2.57 ± 0.45 |  |  |
| GAERLDALLADEERCLSCILAQQP [TRADD] | 3.59 ± 0.25 | 3.83 ± 0.28 |  |  |
| VFNAARDGKLRLLTKLLASKSKEE [FEM1C] | 2.48 ± 0.21 | 2.75 ± 0.3 |  |  |
| KLLMADQDSPLDLTVRKSQSEPSE [LCOR] | 4.82 ± 0.28 | 4.921 ± 0.036 |  |  |
| QVQQVEVEATVKPELTAALRDIRA [PRPH] | 4.02 ± 0.31 | 4.32 ± 0.18 |  |  |
| YSQKESGHSNWLGDPEEPLTGFSW [ATL3] | 1.92 ± 0.44 | 2.78 ± 0.1 |  |  |
| QLVEMTGLSPRVIRVWFQNKRCKD [ISL2] | 2.47 ± 0.4 | 2.95 ± 0.43 |  |  |
| KPPPNSEGEQGPNGSQNSSYSQS [CCNC] |  |  | 5.36 ± 0.24 | 5.41 ± 0.27 |

| Sequence | protein stability index [1] | protein stability index [2] | protein stability index [3] | protein stability index [4] |
| --- | --- | --- | --- | --- |
| KLYTGPGLAIHCMQVHKETIDAVP [ZNF207] | 2.5 ± 0.36 | 2.61 ± 0.3 |  |  |
| MCYGYGCGCGSFCRLGYGCGYEGC [KRTAP19-2] | 2.35 ± 0.23 | 2.43 ± 0.54 |  |  |
| LLLLQVSSSYAGQFRVIGPRHPIR [MOG] | 2.53 ± 0.51 | 2.04 ± 0.22 |  |  |
| LVEHYKKAPIFTSEHGEKLYLVRA [NCK2] | 2.28 ± 0.21 | 2.42 ± 0.24 |  |  |
| GVIQSVSSWKHGSGTQYVSTRQTQ [C18orf25] | 3.19 ± 0.11 | 3.52 ± 0.35 |  |  |
| CIKIWDVTSQATLLTITKAHSNAI [WDR88] | 2.28 ± 0.33 | 2.61 ± 0.28 |  |  |
| QRKLKPPIVPKIAGDGDTSNFETY [PRKX] | 4.38 ± 0.16 | 4.47 ± 0.12 |  |  |
| MMEEIDRFQDPAAASISDGDCDAR [FAM219A] | 5.38 ± 0.16 | 5.42 ± 0.11 |  |  |
| IIYPRQQLLTLRELEMIGFIENNV [TRIP13] | 2.6 ± 0.37 | 2.26 ± 0.22 |  |  |
| KELGTLIPKSSDPEMRWNKGTILK [TFE3] | 4.06 ± 0.28 | 4.01 ± 0.14 |  |  |
| QLSPNLDLDPLELIALANRFCLPH [RHOBTB1] | 2.27 ± 0.11 | 2.44 ± 0.11 |  |  |
| EATHEPAAARIRAQVPDTRWSRVG | 4.62 ± 0.31 | 4.05 ± 0.41 |  |  |
| EKMTILQTYFRQNRDEVLDNLLAF [ATP6V1G1] | 2.7 ± 0.46 | 2.632 ± 0.015 |  |  |
| TPCGPAQACMGGRCLHMDQLQDFN [ADAMTS4] | 2.63 ± 0.25 | 2.75 ± 0.17 |  |  |
| FCNISLFEDLPLQEPQSPQKLNPG [PLAGL1] | 3 ± 0.2 | 3.21 ± 0.25 |  |  |
| FGVAVVITNQVVAQVDGAAMFAAD [RAD51] | 3.26 ± 0.59 | 2.96 ± 0.62 |  |  |
| SQKNEKALTNIQNCMAEKRETVLI [C8orf76] | 3.54 ± 0.29 | 3.69 ± 0.19 |  |  |
| LRATVERMGLMKANHVFFLLYLLH [FADS1] | 2.35 ± 0.37 | 2 ± 0.18 |  |  |
| QPRDEEEAELELLRQFDLAWQYGP [POLD4] | 4.87 ± 0.34 | 4.54 ± 0.27 |  |  |
| PRRVCVGGKRRRDDISVDSLDFTK [PPP2R2C] | 3.79 ± 0.16 | 3.9 ± 0.38 |  |  |
| ADRLVRVHGDPAVWWVSQFVKYLI [FUT8] | 2.25 ± 0.35 | 2.11 ± 0.26 |  |  |
| EHQNKRSPLHAAAEAGHVDICHML [EHMT1] | 3.98 ± 0.27 | 3.94 ± 0.12 |  |  |
| VSIIDTELKVKDSQPIDLSACTVA [TRIP13] | 3.28 ± 0.45 | 3.33 ± 0.29 |  |  |

| Sequence | protein stability index [1] | protein stability index [2] | protein stability index [3] | protein stability index [4] |
| --- | --- | --- | --- | --- |
| MTSNPITWGQIKKTTQEAEKLLER [CDK11A] | 4.55 ± 0.24 | 4.31 ± 0.25 |  |  |
| CGRSEVRPVAPRRPRDAVGQRGAQ [SMAD6] | 4.37 ± 0.24 | 4.57 ± 0.11 |  |  |
| SIGIDNLGLKLEENLQETHSAVL [SLC35F2] |  |  | 4.34 ± 0.31 | 4.53 ± 0.19 |
| PGGLVGSADVVSPSGHSDAQTLAM [PPFIA4] | 4.57 ± 0.22 | 4.43 ± 0.93 |  |  |
| NGQLMAVGGFDGTTYLKTIEVFDP [KLHL20] | 2.93 ± 0.072 | 2.91 ± 0.45 |  |  |
| ECRSSVTSDSEGAHVNTLHSGTKR [PHTF1] | 4.87 ± 0.32 | 4.88 ± 0.17 |  |  |
| VYKDGEHGEEQRITIEPGTSYRLQ [PTPRD] | 4.81 ± 0.15 | 5.03 ± 0.16 |  |  |
| GATPSYHWDLAELLPNQSHGNQSA [SLC22A15] | 4.06 ± 0.19 | 4.22 ± 0.33 |  |  |
| RLGQRQPPPSEPTQGPEIVPRGAG [DNAJC4] | 4.83 ± 0.15 | 4.84 ± 0.12 |  |  |
| EKLAPSEITEELPSSQLMPVKKQL [ZNF396] | 5.17 ± 0.15 | 5.14 ± 0.21 |  |  |
| SLVYYGLTLSAGDLGGSIYANLAL [SLC22A15] | 3.02 ± 0.6 | 2.91 ± 0.45 |  |  |
| DAATTDELSSLGSDSEANGFAERR [TBC1D10A] | 5.47 ± 0.34 | 5.42 ± 0.23 |  |  |
| LICFCRESRYMDQWVPVINLPER [GADD45A] |  |  | 2.98 ± 1.1 | 2.87 ± 0.84 |
| PGKINCLRNCKTYQARKPLWFYNT [RHOBTB3] | 2.59 ± 0.41 | 2.76 ± 0.47 |  |  |
| FPSLQVTAILIECGADVNVRDSDD [FEM1C] | 2.44 ± 0.18 | 2.37 ± 0.39 |  |  |
| NASTLRTINIKCHVHDPHGQVIWG [FBXO39] | 2.17 ± 0.18 | 2.21 ± 0.21 |  |  |
| QLKWASWELHSLRHCDDDGRTENG [ZNF24] | 3.83 ± 0.31 | 4.04 ± 0.21 |  |  |
| GMLSYCDRYSEGIKHVLQTFGPIP [CRYL1] | 2.72 ± 0.5 | 2.196 ± 0.02 |  |  |
| VQLATLAQRVKEVLPHVPLGVIQR [AUP1] | 2.51 ± 0.16 | 2.19 ± 0.29 |  |  |
| HKKKSPGEKPHRCPQCGKCFARKS [ZNF449] | 3.86 ± 0.55 | 4.23 ± 0.43 |  |  |
